Experimental data taken from US20120172293A1 (Takeda / Millennium, published 2012).
Non-standard residues stand in square brackets, D forms with d. *: point of attachment. X10 = Tetrahydro‑2H‑pyran‑4‑yl‑carbamoyl, O=C(NC1CCOCC1)*; Phe(3-Me) = Cc1cccc(C[C@H](N)C(=O)O)c1; Phe(2-Me) = Cc1ccccc1C[C@H](N)C(=O)O; tBuAla = CC(C)(C)C[C@H](N)C(=O)O; Cha = N[C@@H](CC1CCCCC1)C(=O)O; Isobutyryl = CC(C)C(=O)*; Abu = CC[C@H](N)C(=O)O; Aib = CC(C)(N)C(=O)O; Bz = O=C(c1ccccc1)*

T1: human Y2 receptor (human, UniProt P49146 1-381)
T1 sequence (looked up): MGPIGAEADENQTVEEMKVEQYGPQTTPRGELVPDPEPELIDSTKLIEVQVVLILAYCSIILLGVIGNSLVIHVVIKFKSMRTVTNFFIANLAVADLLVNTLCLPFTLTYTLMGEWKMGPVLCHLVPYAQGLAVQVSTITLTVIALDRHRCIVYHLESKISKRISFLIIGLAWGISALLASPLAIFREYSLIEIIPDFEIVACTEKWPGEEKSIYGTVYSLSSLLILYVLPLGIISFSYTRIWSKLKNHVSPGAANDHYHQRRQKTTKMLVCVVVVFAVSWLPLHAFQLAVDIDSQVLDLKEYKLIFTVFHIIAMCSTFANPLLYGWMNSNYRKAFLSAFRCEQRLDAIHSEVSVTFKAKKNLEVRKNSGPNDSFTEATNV


What was measured:
[1] = target: human Y2 receptor (human) (UniProt P49146); assay: cell-based or functional assay
[2] = target: human Y2 receptor (human) (UniProt P49146); assay: RBA: [125I]-PYY displacement, hY2R/CHO membranes
human Y2 receptor [3] = target: T1, human Y2 receptor; assay: cell-based or functional assay
human Y2 receptor [4] = target: T1, human Y2 receptor; assay: RBA: displacement of [125I]-PYY from hY2R/CHO membranes
Description: After incubation at room temperature for 60 minutes, the mixture was filtered through the cell harvester FilterMate (PerkinElmer) using UniFilter-96 GF/C treated with polyethylenimine (PEI) solution (20 mM Tris, 0.3% PEI, pH 7.4), and the filter was washed 3 times with a filtering buffer (50 mM Tris, 5 mM MgCl₂, 150 mM NaCl, 0.03% NaN₃, 0.05% CHAPS, pH 7.4). Thereafter, UniFilter-96 GF/C was dried in a mechanical drier for 1 hour, 15 μl of the liquid scintillator MicroScint O (PerkinElmer) was added to each well, and a measurement was taken using TopCount (PerkinElmer). The data obtained were analyzed using Prism to calculate the IC₅₀ value.

Row | GBA EC50 Ratio (vs PYY(3-36)), [35S]GTPγS [1] | IC50 Ratio (vs PYY(3-36)) [2] | GBA EC50 Ratio ([35S]GTPγS binding) (human Y2 receptor [3]) | IC50 Ratio (human Y2 receptor [4]) | Binder
1 |  |  | 1.2 EC50 compound/EC50 PYY(3-36) | 1.7 IC50 compound/IC50 PYY(3-36) | Ac-E[dP]RH[Cha][Cha]NK[Aib]TRQR[Phe(2-Me)]-NH2 (SMILES CC(=O)N[C@@H](CCC(=O)O)C(=O)N1CCC[C@@H]1C(=O)N[C@@H](CCCNC(=N)N)C(=O)N[C@@H](Cc1c[nH]cn1)C(=O)N[C@@H](CC1CCCCC1)C(=O)N[C@@H](CC1CCCCC1)C(=O)N[C@@H](CC(N)=O)C(=O)N[C@@H](CCCCN)C(=O)NC(C)(C)C(=O)N[C@H](C(=O)N[C@@H](CCCNC(=N)N)C(=O)N[C@@H](CCC(N)=O)C(=O)N[C@@H](CCCNC(=N)N)C(=O)N[C@@H](Cc1ccccc1C)C(N)=O)[C@@H](C)O, also called compound No. 256) [Ac-[Glu23, D-Pro24, Cha27,28, Lys30, Aib31, Phe(2Me)36]-PYY(23-36)]
2 |  |  | 0.93 EC50 compound/EC50 PYY(3-36) | 1.1 IC50 compound/IC50 PYY(3-36) | Ac-E[dP]RH[Cha][Cha]NK[Aib]TRQR[Phe(3-Me)]-NH2 (SMILES CC(=O)N[C@@H](CCC(=O)O)C(=O)N1CCC[C@@H]1C(=O)N[C@@H](CCCNC(=N)N)C(=O)N[C@@H](Cc1c[nH]cn1)C(=O)N[C@@H](CC1CCCCC1)C(=O)N[C@@H](CC1CCCCC1)C(=O)N[C@@H](CC(N)=O)C(=O)N[C@@H](CCCCN)C(=O)NC(C)(C)C(=O)N[C@H](C(=O)N[C@@H](CCCNC(=N)N)C(=O)N[C@@H](CCC(N)=O)C(=O)N[C@@H](CCCNC(=N)N)C(=O)N[C@@H](Cc1cccc(C)c1)C(N)=O)[C@@H](C)O, also called compound No. 259) [Ac-[Glu23, D-Pro24, Cha27,28, Lys30, Aib31, Phe(3Me)36]-PYY(23-36)]
3 | 6 | 13 |  |  | Bz-RS[Cha][Cha]NL[Aib]TRQR[Cha]-NH2 (SMILES CC(C)C[C@H](NC(=O)[C@H](CC(N)=O)NC(=O)[C@H](CC1CCCCC1)NC(=O)[C@H](CC1CCCCC1)NC(=O)[C@H](CO)NC(=O)[C@H](CCCNC(=N)N)NC(=O)c1ccccc1)C(=O)NC(C)(C)C(=O)N[C@H](C(=O)N[C@@H](CCCNC(=N)N)C(=O)N[C@@H](CCC(N)=O)C(=O)N[C@@H](CCCNC(=N)N)C(=O)N[C@@H](CC1CCCCC1)C(N)=O)[C@@H](C)O) [Benzoyl-[Ser26, Cha27,28,36, Aib31]-PYY(25-36)]

Second part, the binder before the results:

Row | Binder | GBA EC50 Ratio (vs PYY(3-36)), [35S]GTPγS [1] | IC50 Ratio (vs PYY(3-36)) [2] | GBA EC50 Ratio ([35S]GTPγS binding) (human Y2 receptor [3]) | IC50 Ratio (human Y2 receptor [4])
4 | Isobutyryl-R[Abu]G[Cha]NL[Aib]TRQR[Cha]-NH2 (SMILES CC[C@H](NC(=O)[C@H](CCCNC(=N)N)NC(=O)C(C)C)C(=O)NCC(=O)N[C@@H](CC1CCCCC1)C(=O)N[C@@H](CC(N)=O)C(=O)N[C@@H](CC(C)C)C(=O)NC(C)(C)C(=O)N[C@H](C(=O)N[C@@H](CCCNC(=N)N)C(=O)N[C@@H](CCC(N)=O)C(=O)N[C@@H](CCCNC(=N)N)C(=O)N[C@@H](CC1CCCCC1)C(N)=O)[C@@H](C)O) [Isobutanoyl-[Abu26, Gly27, Cha28,36, Aib31]-PYY(25-36)] | 49 | 70 |  | 
5 | X10-S[dP]RH[Cha][tBuAla]NK[Aib]TRQR[Cha]-NH2 (SMILES C[C@@H](O)[C@H](NC(=O)C(C)(C)NC(=O)[C@H](CCCCN)NC(=O)[C@H](CC(N)=O)NC(=O)[C@H](CC(C)(C)C)NC(=O)[C@H](CC1CCCCC1)NC(=O)[C@H](Cc1c[nH]cn1)NC(=O)[C@H](CCCNC(=N)N)NC(=O)[C@H]1CCCN1C(=O)[C@H](CO)NC(=O)NC1CCOCC1)C(=O)N[C@@H](CCCNC(=N)N)C(=O)N[C@@H](CCC(N)=O)C(=O)N[C@@H](CCCNC(=N)N)C(=O)N[C@@H](CC1CCCCC1)C(N)=O, also called compound No. 229) [Tetrahydro-2H-pyran-4-yl-carbamoyl-[D-Pro24, Cha27,36, Leu(Me)28, Lys30, Aib31]-PYY(23-36)] |  |  | 0.5 EC50 compound/EC50 PYY(3-36) | 0.45 IC50 compound/IC50 PYY(3-36)
6 | X10-E[dP]RH[Cha][Cha]NK[Aib]TRQR[Cha]-NH2 (SMILES C[C@@H](O)[C@H](NC(=O)C(C)(C)NC(=O)[C@H](CCCCN)NC(=O)[C@H](CC(N)=O)NC(=O)[C@H](CC1CCCCC1)NC(=O)[C@H](CC1CCCCC1)NC(=O)[C@H](Cc1c[nH]cn1)NC(=O)[C@H](CCCNC(=N)N)NC(=O)[C@H]1CCCN1C(=O)[C@H](CCC(=O)O)NC(=O)NC1CCOCC1)C(=O)N[C@@H](CCCNC(=N)N)C(=O)N[C@@H](CCC(N)=O)C(=O)N[C@@H](CCCNC(=N)N)C(=O)N[C@@H](CC1CCCCC1)C(N)=O, also called compound No. 230) [Tetrahydro-2H-pyran-4-yl-carbamoyl-[Glu23, D-Pro24, Cha27,28,36, Lys30, Aib31]-PYY(23-36)] |  |  | 2.5 EC50 compound/EC50 PYY(3-36) | 0.89 IC50 compound/IC50 PYY(3-36)
7 | Ac-S[dP]RH[Cha][Cha]NL[Aib]TRQRX-NH2 (not fully specified (residue 14); printed as Ac-Ser-D-Pro-Arg-His-Cha-Cha-Asn-Leu-Aib-Thr-Arg-Gln-Arg-DL-Phe(2,6-Me2)-NH2; also: residue 36 is DL racemic, residue 36 is a DL racemate; also called compound No. 201) [Ac-[D-Pro24, Cha27,28, Aib31, DL-Phe(2,6-Me2)36]-PYY(23-36)] |  |  | 2 EC50 compound/EC50 PYY(3-36) | 1.6 IC50 compound/IC50 PYY(3-36)
8 | Ac-S[dP]RW[Cha][Aib]NK[Aib]TRQR[Cha]-NH2 (SMILES CC(=O)N[C@@H](CO)C(=O)N1CCC[C@@H]1C(=O)N[C@@H](CCCNC(=N)N)C(=O)N[C@@H](Cc1c[nH]c2ccccc12)C(=O)N[C@@H](CC1CCCCC1)C(=O)NC(C)(C)C(=O)N[C@@H](CC(N)=O)C(=O)N[C@@H](CCCCN)C(=O)NC(C)(C)C(=O)N[C@H](C(=O)N[C@@H](CCCNC(=N)N)C(=O)N[C@@H](CCC(N)=O)C(=O)N[C@@H](CCCNC(=N)N)C(=O)N[C@@H](CC1CCCCC1)C(N)=O)[C@@H](C)O, also called compound No. 347) [Ac-[D-Pro24, Trp26, Cha27,36, Aib28,31, Lys30]-PYY(23-36)] |  |  | 1.3 EC50 compound/EC50 PYY(3-36) | 0.76 IC50 compound/IC50 PYY(3-36)
9 | Ac-S[dP]RF[Cha][Aib]NK[Aib]TRQR[Cha]-NH2 (SMILES CC(=O)N[C@@H](CO)C(=O)N1CCC[C@@H]1C(=O)N[C@@H](CCCNC(=N)N)C(=O)N[C@@H](Cc1ccccc1)C(=O)N[C@@H](CC1CCCCC1)C(=O)NC(C)(C)C(=O)N[C@@H](CC(N)=O)C(=O)N[C@@H](CCCCN)C(=O)NC(C)(C)C(=O)N[C@H](C(=O)N[C@@H](CCCNC(=N)N)C(=O)N[C@@H](CCC(N)=O)C(=O)N[C@@H](CCCNC(=N)N)C(=O)N[C@@H](CC1CCCCC1)C(N)=O)[C@@H](C)O, also called compound No. 345) [Ac-[D-Pro24, Phe26, Cha27,36, Aib28,31, Lys30]-PYY(23-36)] |  |  | 1.4 EC50 compound/EC50 PYY(3-36) | 1.1 IC50 compound/IC50 PYY(3-36)
10 | Ac-S[dP]RY[Cha][Aib]NK[Aib]TRQR[Cha]-NH2 (SMILES CC(=O)N[C@@H](CO)C(=O)N1CCC[C@@H]1C(=O)N[C@@H](CCCNC(=N)N)C(=O)N[C@@H](Cc1ccc(O)cc1)C(=O)N[C@@H](CC1CCCCC1)C(=O)NC(C)(C)C(=O)N[C@@H](CC(N)=O)C(=O)N[C@@H](CCCCN)C(=O)NC(C)(C)C(=O)N[C@H](C(=O)N[C@@H](CCCNC(=N)N)C(=O)N[C@@H](CCC(N)=O)C(=O)N[C@@H](CCCNC(=N)N)C(=O)N[C@@H](CC1CCCCC1)C(N)=O)[C@@H](C)O, also called compound No. 346) [Ac-[D-Pro24, Tyr26, Cha27,36, Aib28,31, Lys30]-PYY(23-36)] |  |  | 1.3 EC50 compound/EC50 PYY(3-36) | 1 IC50 compound/IC50 PYY(3-36)
11 | Ac-S[dP]RQ[Cha][Aib]NK[Aib]TRQR[Cha]-NH2 (SMILES CC(=O)N[C@@H](CO)C(=O)N1CCC[C@@H]1C(=O)N[C@@H](CCCNC(=N)N)C(=O)N[C@@H](CCC(N)=O)C(=O)N[C@@H](CC1CCCCC1)C(=O)NC(C)(C)C(=O)N[C@@H](CC(N)=O)C(=O)N[C@@H](CCCCN)C(=O)NC(C)(C)C(=O)N[C@H](C(=O)N[C@@H](CCCNC(=N)N)C(=O)N[C@@H](CCC(N)=O)C(=O)N[C@@H](CCCNC(=N)N)C(=O)N[C@@H](CC1CCCCC1)C(N)=O)[C@@H](C)O, also called compound No. 221) [Ac-[D-Pro24, Gln26, Cha27,36, Aib28,31, Lys30]-PYY(23-36)] |  |  | 1.4 EC50 compound/EC50 PYY(3-36) | 3.1 IC50 compound/IC50 PYY(3-36)
